A protein production outcome set (Wang et al. 2014)

Assay: label from the status in PepcDB records

Sequence: MEENTAVAAAERRSGCGLLSVMFGRRGLWSKKSTAVDNGSQKSTSTAATATSNIQFTKSPGTELKKPRDDQKVSAEPIQNNKIQNNQNHNQRSVVPSKPSSNQYPNNHQLGTYENHQRSSYNNNSNSVDPYRGGGGQRKVPREAIGLSGELESMITDHQKAKGTNGLVRASSSNIMLYGNLGNLNQTGPVTAGVNYGNNNGYGVKRTTMGAATATTTKSQDQSGSLCRAISTRMDPETLKIMGNEDYKNGNFAEALALYDAAIAIDPNKAAYRSNKSAALTALGRILDAVFECREAIRIEPHYHRAHHRLGNLYLRLGEVEKSIYHFKHSGPEADREDIAKAKTVQTHLNKCTEAKRLRDWNGLITETTNTISSGADAAPQVYALQAEALLKTHRHQEADDALSRCPVFDIDASTRYYGPVGYAGFLVVRAQVHLASGRFDEAVEAIQRAGKLDGNNREVIMISRRAQAVTEARFKGNELFKSGRFQEACAAYGEGLDHDPRNSVLLCNRAACRSKLGQFDKSIEDCTAALSVRPGYGKARLRRADCNAKIEKWELAVGDYEILKKESPEDEQVIRGLSEAQQQLMKRSGQDS
- protein production: failed

Sequence: MEERELTLSDILLMFKRRSKLFWLVLVLTVFATGIYLFLATPQYEAYARVKVSTQKGMRLGLSIEGLLGGLSSLLGGGGSQEDEIQIMLSRRNIIAVIDELDLVHKLLDEKDIEKAKKNGLTEDDLKLSLYSYMVEKLITVEPVKNSSILEVKVTWHEPKLAAEIANKIVENYTKISENIAKSQLGAKMDFLEEQIPKVEQELKEAESKLKVFKEQNRIYSVEAQTQVLIDRYASLLQKMEEARIAMEATQKQSEFFSKELKDLDIEIEQIKDSITFDPIISQLKSNMINIQIELAGLMERYTETNPAVVQKKAELQETQKQLEIELKRLLTSQVKKTGNPVYEEALSSLIKAESEKILYQSQYEAFKKLYEDMEKELSKLPELEQKLIELERDYKVKETIYTTLLQAKYESLISEAAITANANVIDWAVPPLEPSKPNKKLTLAIGGVLGIFLGILAVFFAEFSDRRIKSESEAEYLLGLEKIVARVPLTQNEEVMEKALGIPAVKSGKVTFITALEDGAGVSTLAKHMAKLLSKKEKVLLLTEEKVEGTFDRKDVFDLLKNPDVLEELKERYDKIIVDAPSLKRTPDFLPIAEKSDTVYIVIRLEHTLSEDLKTLHTLKKIDGFILNGLTKKNSTYVE
- protein production: failed

Sequence: MEEVIWEQYTVTLQKDSKRGFGIAVSGGRDNPHFENGETSIVISDVLPGGPADGLLQENDRVVMVNGTPMEDVLHSFAVQQLRKSGKIAAIVVKRPRKVQVAPL
- protein production: not failed

Sequence: MEFAPRSVVIEEFIDTLEPMMEAYGLDQVGIFEEHGEGNRYYVGYTINKDDEMITIHMPFVKNERGELALEKQEWTVRKDGREKKGFHSLQEAMEEVIHS
- protein production: not failed

Sequence: MEFDKGQTLGNFIDRIRLNGYNTECVFNQSICQDIKNHYKQQCCAMCGVRGNSENTQIEVDHKDGRKDDSRVSDLSTQAFDDFQALCKACNDKKRQICKKCKETGYRFDARKIPGNHYSFYEGEAEYDGCVGCYQYDPIQYRKTCNDRIYNEGYQKGYSDGYQIGYHQKTT
- protein production: failed

Sequence: MEFEVKKTFGKARLGVMKLHHGAVETPVFMPVGTNASVKLLTPRDLEEAGAEIILSNTFHLMLKPGVEIIKLHRGLHNFMGWKRPILTDSGGFQVFSLPKIRIDDEGVVFRSPIDGSKVFLNPEISMEVQIALGSDICMVFDHCPVPDADYEEVKEATERTYRWALRSKKAFKTENQALFGIVQGGIYPDLRRESALQLTSIGFDGYAIGGLSIGEERSLTLEMTEVTVEFLPEDKPRYFMGGGSPELILELVDRGVDMFDSVFPTRIARHGTALTWNGKLNLKASYNKRSLEPVDERCGCYTCKNFTRSYIHHLFDRGEVLGQILLTIHNINFMISLMKEVRRSIESGTFKELKSKVVEVYSSGGVNV
- protein production: not failed

Sequence: MEFFAVSLDSHVFSHIKEIFLYNHNQKFYVVMMKHDDVLMILAAAALMFSFSWVHGMLLVLPLLAIPQLSSRTLKWGVLVLAVFVALLILQPMTRAVGLNISDELFRLVLLLLFTFMVALLIERIEKVRSLRELNLELKKQAEKLEDANKELEAFAYSVSHDLRVPLRAIDGFSRILVEDYEDKLDDEGVRILGIIRDNTRKMGQLIDDILLLSRAGRQEMNLAMLDMRELAESTYRELASQEEGRSIEFSVADLPPAMADRALMGQVMGNLLSNAIKFTRDRDPAVIEVGYMDGGDEHTYYVKDNGAGFDMKYASKLFGLFQRLHSQEEFEGTGVGLSIVQRIIKRHGGRVWGEGKVDGGATIYFTLPKVVK
- protein production: failed

Sequence: MEFLAYFNSVISNNIFLAIILSFFAGVVASFSPCTLSSIPLLIGYVQGSEVKDNKKAFKYSLIFSIGLGITFTVIGLLTALIGKAFLGAGKFWYIILAFIMIGSGLQVLDVINLFGDKKEACKITKRREGILDAFFLGILSGILASPCATPIMAAIIAFIAASGNLVIGMIMLLMYSLGHSVLIILAGTSFGLVEKIAYSENGKKIGRVLKNILGTIIILVGLYLFYLGV
- protein production: failed

Sequence: MEFLIILLLLVLNGIFAMYEIALVSSSKARLETLAGKGNKSARGVLKQLEEPEKFLSTIQIGITLIGIVSGAYGGVAIADDLVPLFSLIPGAEAYARNLAMITTVVIITYLSLIIGELVPKSIALSNPERYATLFSPIMILLTKVSYPFVWFLSISTRLLNRIIGVKNEERPMTQEEIKMILHQSSEQGVIDKEETEMLRDVFRFSDKRANELMTHRRDLVIFHPDDTKDKVMKTIEEEHYSKYLLVDERKDEIIGVVSVKDIILMVGNKKEFNLREIARPALFIPESLYANKILELFKKNKNKFGVVVNEYGSTEGIITLHDLTESIFGDILEEDDTEEEDIVRRQDGSMLVEASMNIKDFMEEMGILSYEDLEDEDFTTLGGLAMFLLGGIPKAGDIFTYKNLQFEVVDMDRGRVDKLLVIKRDEEE
- protein production: failed

Sequence: MEFMHDKSAEDEGITLVSEPMDTTVATHESRRNAAAFSSVVAPTTDDEIVHERFDPAFEVQADFYGFDENAPPLPLPEEYYSELPLPEEDRQYIPPPPALIPVEPETTFRRPRTRQQRRTESQLVQPVSVATYEDSKASLRVLMQQLPPPGDNVVARIPKRTHRVVRTLPPTFGTTKREENFYGFSKTAISWRKTRASWRHFCLLING
- protein production: failed

Sequence: MEFRLLHISDLHMIPGQETKKAWVSALDSLSPDLVINTGDNLSDEKAVPDVLRALGPLMNRPGAFVFGTNDYWAPRPVNPFGYLFGKKREVSHIDLPWRAMRAAFIEHGWQDANQKRLEFQVGSVRLAISGVDDPHHDLDDYTEIAGAPNVDADLSIALLHAPEPRVLAQFEADGYQLSLSGHTHGGQLEHHHHHH
- protein production: failed

Sequence: MEFSGRKWRKLRLAGDQRNASYPHCLQFYLQPPSENISLIEFENLAIDRVKLLKSVENLGVSYVKGTEQYQSKLESELRKLKFSYRENLEDEYEPRRRDHISHFILRLAYCQSEELRRWFIQQEMDLLRFRFSILPKDKIQDFLKDSQLQFEAISDEEKTLREQEIVASSPSLSGLKLGFESIYKIPFADALDLFRGRKVYLEDGFAYVPLKDIVAIILNEFRAKLSKALALTARSLPAVQSDERLQPLLNHLSHSYTGQDYSTQGNVGKISLDQIDLLSTKSFPPCMRQLHKALRENHHLRHGGRMQYGLFLKGIGLTLEQALQFWKQEFIKGKMDPDKFDKGYSYNIRHSFGKEGKRTDYTPFSCLKIILSNPPSQGDYHGCPFRHSDPELLKQKLQSYKISPGGISQILDLVKGTHYQVACQKYFEMIHNVDDCGFSLNHPNQFFCESQRILNGGKDIKKEPIQPETPQPKPSVQKTKDASSALASLNSSLEMDMEGLEDYFSEDS
- protein production: failed

Sequence: MEFTTGLMSLDTALNEMLSRVTPLTAQETLPLVQCFGRILASDVVSPLDVPGFDNSAMDGYAVRLADIASGQPLPVAGKSFAGQPYHGEWPAGTCIRIMTGAPVPEGCEAVVMQEQTEQMDNGVRFTAEVRSGQNIRRRGEDISAGAVVFPAGTRLTTAELPVIASLGIAEVPVIRKVRVALFSTGDELQLPGQPLGDGQIYDTNRLAVHLMLEQLGCEVINLGIIRDDPHALRAAFIEADSQADVVISSGGVSVGEADYTKTILEELGEIAFWKLAIKPGKPFAFGKLSNSWFCGLPGNPVSATLTFYQLVQPLLAKLSGNTASGLPARQRVRTASRLKKTPGRLDFQRGVLQRNADGELEVTTTGHQGSHIFSSFSLGNCFIVLERDRGNVEVGEWVEVEPFNALFGGL
- protein production: not failed

Sequence: MEFYEVIKKRKSIKKFEQTAIDRDKLLKIIDMAMRAPSWKNKTPYKFIVVESDKLKLDIANAIENKTSAASEAVLNSPMTIVAVANPEESGDVSGKEIYLIDTAIAMEHIVLGATDEGYGTCWIAAFNENKIKEALKIPDNLRVVALTPLGVPKDSAEDEPHHPKKDMDEYLYIDKWGTSFMESNVKILEKN
- protein production: not failed

Sequence: MEGFGMPKLIISGRGGSGKSTLVTLIAHTLKEQKKRVLVVDSDESNIGLSGILGIEPAEKTLMDYLGGKPRVMKKLRSMIRDGETEPELFREKFDLESLSQEFVCWVGSLGLMQIGKIDHAMEGCACPMGAVTRDFLNHVRLEEDQWVLVDTEAGVEHFGRGIVEGADAVVMVVDPSSDAVLLAEKAAKLTHEADKRFGVILNKIDEETEPILTELLTSEGNEIKGVLPYSPAITKMNLKGESLGAYAVKNEVDEIIRELMKCLEHHHHHH
- protein production: failed

Sequence: MEGIDMLDIKLIRENPELVKNDLIKRGELEKVKWVDEILKLDTEWRTKLKEINRLRHERNKIAVEIGKRRKKGEPVDELLAKSREIVKRIGELENEVEELKKKIDYYLWRLPNITHPSVPVGKDENDNVPIRFWGKARVWKGHLERFLEQSQGKMEYEILEWKPKLHVDLLEILGGADFARAAKVSGSRFYYLLNEIVILDLALIRFALDRLIEKGFTPVIPPYMVRRFVEEGSTSFEDFEDVIYKVEDEDLYLIPTAEHPLAGMHANEILDGKDLPLLYVGVSPCFRKEAGTAGKDTKGIFRVHQFHKVEQFVYSRPEESWEWHEKIIRNAEELFQELEIPYRVVNICTGDLGYVAAKKYDIEAWMPGQGKFREVVSASNCTDWQARRLNIRFRDRTDEKPRYVHTLNSTAIATSRAIVAILENHQEEDGTVRIPKVLWKYTGFKEIVPVEKKERCCAT
- protein production: not failed

Sequence: MEGLLIDYVQPGSIAEELEIEAGDRLVAINGQDLRDIIDFSFYAHDEELALEIVKPSGDHWEAEIERDGDEPLGLVFAPPVPAQCGNKCVFCFVHQLPKGLRRPLYVKDEDYRLSFLYGNYVTLSNIRRGDLDRIVAQRLSPLYISVHATNPALRERLLGRSEILPILDLMRELAAARIVMHSQIVLCPGLNDGVELEKTVRDLAGLHPWVESLAIVPIGLTKHRRGLPALEPVTASYAETFVQNWQPAAERLERELGAPFLFIADEFYIKAGLPFPPLETYGDLPQIENGVGMIPLFLDESERVLKKARKGKPVTVTVVTGESPYRYLAAFLERLSVRTGATFKPVAVHNRLFGESVTVTGLVAGSDIVEELSGRDLGDAVLVPDVMLKEGEGIFLDDLSVDGLGKSLGTRVLVVEATPQGVVDALRRVRSMLEHHHHHH
- protein production: failed

Sequence: MEGMKGAVLITGASRGIGEATARLLHAKGYRVGLMARDEKRLQALAAELEGALPLPGDVREEGDWARAVAAMEEAFGELSALVNNAGVGVMKPVHELTLEEWRLVLDTNLTGAFLGIRHAVPALLRRGGGTIVNVGSLAGKNPFKGGAAYNASKFGLLGLAGAAMLDLREANVRVVNVLPGSVDTGFAGNTPGQAWKLKPEDVAQAVLFALEMPGHAMVSEIELRPTRPTSGPR
- protein production: not failed

Sequence: MEGPLNLAHQQSRRADRLLAAGKYEEAISCHRKATTYLSEAMKLTESEQAHLSLELQRDSHMKQLLLIQERWKRAKREERLKAH
- protein production: not failed

Sequence: MEGQTHDAQNNVPEHDNPLMNVKNPSSNLFSKKDAQCLSVLCNGKWLQIVRSSPKVSCEASTCPSHILTKVGENYVAESEKMHKKVISFSSKTFSQGTLQFTMRANGTPHFVFKLENQKDVYVASLSSNVQDQNSYMIHLQRGESSASSSHLVGRINVSTLFSEKVLEREFVLFSSNGENLKIPRTRKNRGLSKKVVHAVKNERRTARLSRTSFIPDLGSWDEQFQAQNYDCLLKNKLPTNLETLAVVVKQETIEDEIGGWGLKFLKRSPMFQRSNDASETETSTSSISMNVVIPSGIHGGPEDGPSSLIERWKSQGNCDCGGWDLCCSLTLLKGQPRKDQYFELFIEVKLSFISSNTSIL
- protein production: failed
